From publication PMC7721647, “The Human RNA Helicase DDX21 Presents a Dimerization Interface Necessary for Helicase Activity” (iScience, 2020)

How the values were obtained:
DDX21ΔNC = target: T1, DDX21ΔNC (human, UniProt Q9NR30 186-710); assay: fluorescence polarization; 50 mM KCl (Table S2 prints 36.7); FP: 50 mM Tris pH 7.5, 50 mM KCl, 5 mM MgCl2, no ATP; Hill-slope fit; temperature not given in the material; conditions: protein: recombinant; chain copies: 2; label: 5'-FAM; G4
T1 sequence: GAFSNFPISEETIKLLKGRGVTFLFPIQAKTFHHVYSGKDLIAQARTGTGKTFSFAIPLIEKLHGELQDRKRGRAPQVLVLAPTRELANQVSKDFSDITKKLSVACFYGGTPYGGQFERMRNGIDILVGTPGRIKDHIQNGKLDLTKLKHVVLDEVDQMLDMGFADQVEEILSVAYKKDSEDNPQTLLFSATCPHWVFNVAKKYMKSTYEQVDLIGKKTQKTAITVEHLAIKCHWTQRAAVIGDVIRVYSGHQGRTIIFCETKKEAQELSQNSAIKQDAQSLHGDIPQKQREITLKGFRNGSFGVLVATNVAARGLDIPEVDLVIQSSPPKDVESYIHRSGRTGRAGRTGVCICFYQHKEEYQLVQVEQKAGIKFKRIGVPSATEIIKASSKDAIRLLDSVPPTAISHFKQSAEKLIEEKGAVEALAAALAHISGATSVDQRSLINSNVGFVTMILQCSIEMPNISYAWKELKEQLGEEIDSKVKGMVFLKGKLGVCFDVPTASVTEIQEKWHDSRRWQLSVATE

DDX21Core-DD = target: T2, DDX21Core-DD (human, UniProt Q9NR30 186-620); assay: fluorescence polarization; 50 mM KCl; FP: 50 mM Tris pH 7.5, 50 mM KCl, 5 mM MgCl2, no ATP; Hill-slope fit; temperature not given in the material; conditions: protein: recombinant; tags: C-terminal His6, uncleavable; chain copies: 2; label: 5'-FAM; G4
T2 sequence: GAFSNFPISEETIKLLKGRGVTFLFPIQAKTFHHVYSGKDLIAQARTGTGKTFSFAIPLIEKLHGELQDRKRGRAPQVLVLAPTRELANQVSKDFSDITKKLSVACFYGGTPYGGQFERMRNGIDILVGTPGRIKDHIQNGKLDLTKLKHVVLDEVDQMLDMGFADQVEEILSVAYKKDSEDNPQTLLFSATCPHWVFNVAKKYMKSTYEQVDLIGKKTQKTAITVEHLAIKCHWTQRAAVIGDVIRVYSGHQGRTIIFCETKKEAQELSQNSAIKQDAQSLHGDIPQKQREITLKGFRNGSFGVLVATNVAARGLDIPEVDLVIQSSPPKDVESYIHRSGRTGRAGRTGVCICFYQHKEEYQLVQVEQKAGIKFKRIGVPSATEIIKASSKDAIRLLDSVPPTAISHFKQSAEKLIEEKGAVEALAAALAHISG

DDX21ΔN monomer = target: T3, DDX21ΔN monomer (human, UniProt Q9NR30 186-783, L611R;A612R;A613R;A614R;L615R;A616R); assay: as above; conditions: protein: recombinant; label: 5'-FAM; G4
T3 sequence: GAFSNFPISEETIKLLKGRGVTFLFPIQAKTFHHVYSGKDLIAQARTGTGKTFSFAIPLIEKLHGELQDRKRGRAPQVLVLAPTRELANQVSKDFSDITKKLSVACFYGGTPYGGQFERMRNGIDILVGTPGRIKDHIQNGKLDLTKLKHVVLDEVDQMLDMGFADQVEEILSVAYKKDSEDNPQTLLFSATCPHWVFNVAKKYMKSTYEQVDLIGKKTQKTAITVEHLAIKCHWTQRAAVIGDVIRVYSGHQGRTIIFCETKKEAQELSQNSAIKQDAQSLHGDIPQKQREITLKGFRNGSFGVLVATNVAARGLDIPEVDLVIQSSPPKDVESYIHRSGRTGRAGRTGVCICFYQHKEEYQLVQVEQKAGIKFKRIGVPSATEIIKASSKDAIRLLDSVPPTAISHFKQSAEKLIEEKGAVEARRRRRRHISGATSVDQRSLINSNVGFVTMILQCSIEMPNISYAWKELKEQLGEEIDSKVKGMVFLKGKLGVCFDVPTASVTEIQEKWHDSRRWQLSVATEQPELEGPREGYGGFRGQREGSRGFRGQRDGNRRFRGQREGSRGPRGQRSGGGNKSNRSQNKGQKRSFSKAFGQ

DDX21Fl monomer = target: T4, DDX21Fl monomer (human, UniProt Q9NR30 1-783, L611R;A612R;A613R;A614R;L615R;A616R); assay: as above; conditions: protein: recombinant; label: 5'-FAM; G4
T4 sequence: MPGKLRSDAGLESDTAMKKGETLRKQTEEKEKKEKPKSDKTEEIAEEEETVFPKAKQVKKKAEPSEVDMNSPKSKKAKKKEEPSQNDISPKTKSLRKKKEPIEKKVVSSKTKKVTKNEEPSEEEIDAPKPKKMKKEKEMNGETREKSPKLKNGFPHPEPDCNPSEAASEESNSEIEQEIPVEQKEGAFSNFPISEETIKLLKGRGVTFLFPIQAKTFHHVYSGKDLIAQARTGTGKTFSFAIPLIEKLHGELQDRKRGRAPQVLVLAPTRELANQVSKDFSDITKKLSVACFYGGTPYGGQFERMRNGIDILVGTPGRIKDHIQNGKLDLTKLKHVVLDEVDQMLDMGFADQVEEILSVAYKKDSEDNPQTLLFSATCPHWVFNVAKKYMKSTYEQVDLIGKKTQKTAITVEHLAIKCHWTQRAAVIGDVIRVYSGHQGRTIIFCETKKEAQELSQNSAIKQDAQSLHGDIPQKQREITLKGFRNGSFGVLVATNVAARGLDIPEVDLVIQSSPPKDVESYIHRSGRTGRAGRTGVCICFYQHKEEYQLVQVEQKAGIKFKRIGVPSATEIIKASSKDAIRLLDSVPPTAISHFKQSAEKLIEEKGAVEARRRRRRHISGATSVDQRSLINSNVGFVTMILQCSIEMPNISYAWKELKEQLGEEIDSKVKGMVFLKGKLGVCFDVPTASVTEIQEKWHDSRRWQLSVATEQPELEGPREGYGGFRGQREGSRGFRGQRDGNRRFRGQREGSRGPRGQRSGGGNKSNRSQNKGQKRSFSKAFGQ

B1: Q2 RNA G-quadruplex (structured_RNA)
RNA: GUUGGGGCGGGCGUUGGGUUUGGGGGGACG
Binder B1 has a Kd (DDX21ΔNC) of 36.5 ± 2.7 nM, a Kd (DDX21Core-DD) of 23.1 ± 3.2 nM and a Kd (DDX21ΔN monomer) of 2.9 ± 0.3 nM. It also gave a Kd (DDX21Fl monomer) of 9.8 ± 0.9 nM.
